Test results taken from the supplement of paper PMC7877785.
± gives the uncertainty stated by the source.

Assay: self-splicing fitness, log relative to wild type (ln ratio); higher = more splicing; Tetrahymena group I intron in knt gene, E. coli kanamycin selection, DiMSum; sequences stand for … in CUCUCU…GGAGGGAAAAGUUAUCAGGCAUGCACCUGGUAGCUAGUCUUUAAACCAAUAGAUUGCAUCGGUUUAAAAGGCAAGACCGUCAAAUUGCGGGAAAGGGGUCAACAGCCGUUCAGUACCAAGUCUCAGGGGAAACUUUGAGAUGGCCUUGCAAAGGGUAUGGUAAUAAGCUGACGGACAUGGUCCUAACCACGCAGCCAAGUCCUAAGUCAACAGAUCUUCUGUUGAUAUGGAUGCAGUUCACAGACUAAAUGUCGGUCGGGGAAGAUGUAUUCUUCUCAUAAGAUAUAGUCGGACCUCUCCUUAAUGGGAGCUAGCGGAUGAAGUGAUGCAACACUGGAGCCGCUGGGAACUAAUUUGUAUGCGAAAGUAUAUUGAUUAGUUUUGGAGUACUCGUGGUCG
Method in brief: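 Library with all eight P1ex-region intron nucleotides randomised, intron inside the knt kanamycin-resistance gene on pET-22b(+), in E. coli BL21(DE3). Cells grew overnight at 37°C or 30°C on LB agar with or without 25 μg/mL kanamycin (plus 100 μg/mL carbenicillin, 50 μM IPTG, 0.2% rhamnose), in six replicate transformations. Pooled colonies were amplicon-sequenced on Illumina HiSeq 2500. DiMSum fitness is the error-weighted combination of wild-type-normalised replicate fold changes, kanamycin versus none.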

| Sequence | self-splicing fitness (ln) (30 °C) | self-splicing fitness (ln) (37 °C) |
| --- | --- | --- |
| UCUCAGCAAUAUUACGAUUU | -1.99 ± 0.093 | -1.1 ± 0.12 |
| UCUCAGCAAUAUUACGCCAA | -2.86 ± 0.27 | -2.74 ± 0.29 |
| UCUCAGCAAUAUUACGCGAC |  | -2.37 ± 0.35 |
| UCUCAGCAAUAUUACGCGGC | -4.17 ± 0.42 | -1.86 ± 0.27 |
| UCUCAGCAAUAUUACGCGGU | -2.89 ± 0.26 | -2.3 ± 0.28 |
| UCUCAGCAAUAUUACGCUCU | -3.26 ± 0.26 | -2.68 ± 0.41 |
| UCUCAGCAAUAUUACGCUUC | -2.92 ± 0.21 | -2.33 ± 0.28 |
| UCUCAGCAAUAUUACGGAGU | -2.81 ± 0.22 | -2.49 ± 0.19 |
| UCUCAGCAAUAUUACGGCAU | -2.27 ± 0.11 | -2.4 ± 0.16 |
| UCUCAGCAAUAUUACGGCGA | -1.13 ± 0.1 | -0.623 ± 0.11 |
| UCUCAGCAAUAUUACGGCUA | -0.678 ± 0.29 | -2.19 ± 0.32 |
| UCUCAGCAAUAUUACGUAAU | -3.43 ± 0.18 | -2.28 ± 0.18 |
| UCUCAGCAAUAUUACGUCUA | -2.95 ± 0.28 | -1.38 ± 0.15 |
| UCUCAGCAAUAUUACGUCUG | -4.98 ± 0.45 | -2.82 ± 0.25 |
| UCUCAGCAAUAUUACGUGAU | -4.03 ± 0.21 | -1.85 ± 0.13 |
| UCUCAGCAAUAUUACGUGGA | -3.7 ± 0.29 | -1.05 ± 0.12 |
| UCUCAGCAAUAUUACGUUAC |  | -1.86 ± 0.36 |
| UCUCAGCAAUAUUACGUUCA | -2.49 ± 0.14 | -1.15 ± 0.14 |
| UCUGAGCAAUAUUACGAAGC |  | -1.48 ± 0.37 |
| UCUGAGCAAUAUUACGAAUC | -3.29 ± 0.25 | -3.03 ± 0.43 |
| UCUGAGCAAUAUUACGAAUG | -2.96 ± 0.26 | -1.66 ± 0.21 |
| UCUGAGCAAUAUUACGAUGG | -1.42 ± 0.16 | -0.717 ± 0.2 |
| UCUGAGCAAUAUUACGAUUU | -2.65 ± 0.22 | -1.31 ± 0.2 |
| UCUGAGCAAUAUUACGCAAA | -2.8 ± 0.33 | -1.27 ± 0.19 |
| UCUGAGCAAUAUUACGCCAA |  | -1.51 ± 0.32 |

| Sequence | self-splicing fitness (ln) (30 °C) | self-splicing fitness (ln) (37 °C) |
| --- | --- | --- |
| UCUGAGCAAUAUUACGCCAU |  | -2.32 ± 0.31 |
| UCUGAGCAAUAUUACGCCCG | -2.56 ± 0.28 | -2.38 ± 0.49 |
| UCUGAGCAAUAUUACGCCGU | -3.13 ± 0.48 | -1.56 ± 0.36 |
| UCUGAGCAAUAUUACGCGGA | -3.6 ± 0.27 | -2.66 ± 0.21 |
| UCUGAGCAAUAUUACGCUAG | -1.31 ± 0.17 | -1.43 ± 0.19 |
| UCUGAGCAAUAUUACGGCGA | -0.309 ± 0.12 | 0.122 ± 0.18 |
| UCUGAGCAAUAUUACGGGAG | -4.4 ± 0.36 | -2.65 ± 0.29 |
| UCUGAGCAAUAUUACGGGCG | -1.33 ± 0.17 | -2.56 ± 0.22 |
| UCUGAGCAAUAUUACGGGGA | -2.89 ± 0.2 | -1.97 ± 0.19 |
| UCUGAGCAAUAUUACGGGGC | -3.3 ± 0.32 | -2.7 ± 0.36 |
| UCUGAGCAAUAUUACGGUGA | -0.612 ± 0.11 | -0.1 ± 0.13 |
| UCUGAGCAAUAUUACGUCAA | -2.53 ± 0.24 | -2.22 ± 0.27 |
| UCUGAGCAAUAUUACGUCUG | -1.01 ± 0.11 | -1.4 ± 0.14 |
| UCUGAGCAAUAUUACGUGCA | -2.65 ± 0.19 | -1.99 ± 0.22 |
| UCUGAGCAAUAUUACGUUAG | -2.36 ± 0.14 | -1.82 ± 0.17 |
| UCUUAGCAAUAUUACGACCU | -1.75 ± 0.4 | 0.256 ± 0.43 |
| UCUUAGCAAUAUUACGACUG | -2.53 ± 0.23 | -1.69 ± 0.23 |
| UCUUAGCAAUAUUACGCACU | -2.05 ± 0.33 | -0.732 ± 0.36 |
| UCUUAGCAAUAUUACGCGAU | -3.71 ± 0.33 | -3.67 ± 0.34 |
| UCUUAGCAAUAUUACGCUUG | -2.43 ± 0.24 | -1.89 ± 0.23 |
| UCUUAGCAAUAUUACGGCUU | -3.65 ± 0.41 | -2.63 ± 0.48 |
| UCUUAGCAAUAUUACGGGCA | -0.387 ± 0.14 | -0.119 ± 0.16 |
| UCUUAGCAAUAUUACGGGCU | -4.8 ± 0.46 | -2.26 ± 0.28 |
| UCUUAGCAAUAUUACGGUAU | -4.43 ± 0.39 | -2.85 ± 0.29 |
| UCUUAGCAAUAUUACGGUCU | -4.42 ± 0.42 | -2.67 ± 0.32 |

| Sequence | self-splicing fitness (ln) (30 °C) | self-splicing fitness (ln) (37 °C) |
| --- | --- | --- |
| UCUUAGCAAUAUUACGUCGA | -0.705 ± 0.13 | -0.434 ± 0.15 |
| UCUUAGCAAUAUUACGUCGG | -0.815 ± 0.21 | -0.0675 ± 0.2 |
| UCUUAGCAAUAUUACGUCUC | -3.09 ± 0.3 | -2.39 ± 0.39 |
| UCUUAGCAAUAUUACGUGGA | -3.14 ± 0.32 | -3.03 ± 0.37 |
| UCUUAGCAAUAUUACGUGGC |  | -1.6 ± 0.42 |
| UCUUAGCAAUAUUACGUUAA | -2.98 ± 0.26 | -2.67 ± 0.38 |
| UCUUAGCAAUAUUACGUUAC |  | -2.83 ± 0.31 |
| UGAAAGCAAUAUUACGAAAG | -2.61 ± 0.15 | -0.866 ± 0.16 |
| UGAAAGCAAUAUUACGACCC | -1.44 ± 0.31 |  |
| UGAAAGCAAUAUUACGACUC | -2.17 ± 0.2 | -1.88 ± 0.25 |
| UGAAAGCAAUAUUACGAGGA | -3.43 ± 0.24 | -1.81 ± 0.15 |
| UGAAAGCAAUAUUACGAGUC | -3.42 ± 0.28 | -2.28 ± 0.26 |
| UGAAAGCAAUAUUACGAUCA | -0.309 ± 0.084 | -0.381 ± 0.1 |
| UGAAAGCAAUAUUACGCAAC | -3.98 ± 0.29 | -1.69 ± 0.19 |
| UGAAAGCAAUAUUACGCCAU | -3.11 ± 0.3 | -3.23 ± 0.33 |
| UGAAAGCAAUAUUACGCCCA | -0.309 ± 0.11 | 0.296 ± 0.16 |
| UGAAAGCAAUAUUACGCCUU | -0.914 ± 0.2 | -2.01 ± 0.34 |
| UGAAAGCAAUAUUACGCGCA | -0.0804 ± 0.12 | 0.142 ± 0.15 |
| UGAAAGCAAUAUUACGGGGG | -2.07 ± 0.17 | -2.89 ± 0.26 |
| UGAAAGCAAUAUUACGGGGU | -3.55 ± 0.2 | -2.48 ± 0.18 |
| UGAAAGCAAUAUUACGGUAG | -0.656 ± 0.06 | -0.113 ± 0.088 |
| UGAAAGCAAUAUUACGGUAU | -2.53 ± 0.21 | -0.827 ± 0.16 |
| UGAAAGCAAUAUUACGGUGG | -1.22 ± 0.063 | -1.44 ± 0.093 |
| UGAAAGCAAUAUUACGUACG | -0.177 ± 0.11 | 0.639 ± 0.13 |
| UGAAAGCAAUAUUACGUAGU | -3.96 ± 0.26 | -2.16 ± 0.18 |

| Sequence | self-splicing fitness (ln) (30 °C) | self-splicing fitness (ln) (37 °C) |
| --- | --- | --- |
| UGAAAGCAAUAUUACGUCAA | -0.68 ± 0.12 | -1.31 ± 0.12 |
| UGAAAGCAAUAUUACGUCAG | -1.78 ± 0.13 | -0.368 ± 0.13 |
| UGAAAGCAAUAUUACGUGUU | -3.21 ± 0.13 | -1.44 ± 0.11 |
| UGACAGCAAUAUUACGAAAG | -3.07 ± 0.25 | -2.15 ± 0.2 |
| UGACAGCAAUAUUACGAACA | -0.232 ± 0.081 | -0.06 ± 0.087 |
| UGACAGCAAUAUUACGACAU | -1.209 ± 0.012 | -0.373 ± 0.032 |
| UGACAGCAAUAUUACGAGAA |  | -2.33 ± 0.29 |
| UGACAGCAAUAUUACGAUGU | -4.14 ± 0.17 | -2.28 ± 0.14 |
| UGACAGCAAUAUUACGAUUC | -3.35 ± 0.17 | -2.09 ± 0.14 |
| UGACAGCAAUAUUACGCCAG | -1.56 ± 0.12 | -0.793 ± 0.14 |
| UGACAGCAAUAUUACGCGUA | -0.95 ± 0.094 | -0.353 ± 0.089 |
| UGACAGCAAUAUUACGCGUG | -0.925 ± 0.066 | 0.0478 ± 0.08 |
| UGACAGCAAUAUUACGCUCG | -1.1 ± 0.11 | -0.143 ± 0.14 |
| UGACAGCAAUAUUACGCUUU | -3.43 ± 0.2 | -2.54 ± 0.26 |
| UGACAGCAAUAUUACGGAAC | -2.81 ± 0.24 | -2.42 ± 0.24 |
| UGACAGCAAUAUUACGGCGA | -0.625 ± 0.085 | -0.382 ± 0.092 |
| UGACAGCAAUAUUACGUAAU | -2.19 ± 0.099 | -0.915 ± 0.15 |
| UGACAGCAAUAUUACGUACC | -1.78 ± 0.12 | -0.302 ± 0.14 |
| UGACAGCAAUAUUACGUAGA | -2.29 ± 0.085 | -1.14 ± 0.11 |
| UGACAGCAAUAUUACGUAUC | -2.91 ± 0.097 | -2.57 ± 0.13 |
| UGACAGCAAUAUUACGUGUA | -1.58 ± 0.081 | -0.841 ± 0.081 |
| UGACAGCAAUAUUACGUUAC | -3.81 ± 0.35 | -3.32 ± 0.31 |
| UGACAGCAAUAUUACGUUCC | -1.55 ± 0.1 | -0.947 ± 0.14 |
